Measurements reported in paper doi:10.1101/2020.02.22.960815 (bioRxiv, 2020).

Biological target: the molecule itself
Experiment: cryo-EM structure

B1: human potassium-chloride co-transporter 3 (KCC3), full length, wild type (natural protein, UniProt Q9UHW9-2 1-1099, looked up)
chain: MPHFTVTKVEDPEEGAAASISQEPSLADIKARIQDSDEPDLSQNSITGEHSQLLDDGHKKARNAYLNNSNYEEGDEYFDKNLALFEEEMDTRPKVSSLLNRMANYTNLTQGAKEHEEAENITEGKKKPTKTPQMGTFMGVYLPCLQNIFGVILFLRLTWVVGTAGVLQAFAIVLICCCCTMLTAISMSAIATNGVVPAGGSYFMISRALGPEFGGAVGLCFYLGTTFAAAMYILGAIEIFLVYIVPRAAIFHSDDALKESAAMLNNMRVYGTAFLVLMVLVVFIGVRYVNKFASLFLACVIVSILAIYAGAIKSSFAPPHFPVCMLGNRTLSSRHIDVCSKTKEINNMTVPSKLWGFFCNSSQFFNATCDEYFVHNNVTSIQGIPGLASGIITENLWSNYLPKGEIIEKPSAKSSDVLGSLNHEYVLVDITTSFTLLVGIFFPSVTGIMAGSNRSGDLKDAQKSIPIGTILAILTTSFVYLSNVVLFGACIEGVVLRDKFGDAVKGNLVVGTLSWPSPWVIVIGSFFSTCGAGLQSLTGAPRLLQAIAKDNIIPFLRVFGHSKANGEPTWALLLTAAIAELGILIASLDLVAPILSMFFLMCYLFVNLACALQTLLRTPNWRPRFRYYHWALSFMGMSICLALMFISSWYYAIVAMVIAGMIYKYIEYQGAEKEWGDGIRGLSLSAARFALLRLEEGPPHTKNWRPQLLVLLKLDEDLHVKHPRLLTFASQLKAGKGLTIVGSVIVGNFLENYGEALAAEQTIKHLMEAEKVKGFCQLVVAAKLREGISHLIQSCGLGGMKHNTVVMGWPNGWRQSEDARAWKTFIGTVRVTTAAHLALLVAKNISFFPSNVEQFSEGNIDVWWIVHDGGMLMLLPFLLKQHKVWRKCSIRIFTVAQLEDNSIQMKKDLATFLYHLRIEAEVEVVEMHDSDISAYTYERTLMMEQRSQMLRHMRLSKTERDREAQLVKDRNSMLRLTSIGSDEDEETETYQEKVHMTWTKDKYMASRGQKAKSMEGFQDLLNMRPDQSNVRRMHTAVKLNEVIVNKSHEAKLVLLNMPGPPRNPEGDENYMEFLEVLTEGLERVLLVRGGGSEVITIYS
modifications: phosphorylated threonine built on T940 and T997 (from the cryo-EM map and mass spectra); carbohydrate chains
- stoichiometry N: 2

B2: KCC3 phosphorylation mimic mutant S45E/T940E/T997E (natural protein, human, UniProt Q9UHW9-2 1-1099, looked up)
chain: MPHFTVTKVEDPEEGAAASISQEPSLADIKARIQDSDEPDLSQNEITGEHSQLLDDGHKKARNAYLNNSNYEEGDEYFDKNLALFEEEMDTRPKVSSLLNRMANYTNLTQGAKEHEEAENITEGKKKPTKTPQMGTFMGVYLPCLQNIFGVILFLRLTWVVGTAGVLQAFAIVLICCCCTMLTAISMSAIATNGVVPAGGSYFMISRALGPEFGGAVGLCFYLGTTFAAAMYILGAIEIFLVYIVPRAAIFHSDDALKESAAMLNNMRVYGTAFLVLMVLVVFIGVRYVNKFASLFLACVIVSILAIYAGAIKSSFAPPHFPVCMLGNRTLSSRHIDVCSKTKEINNMTVPSKLWGFFCNSSQFFNATCDEYFVHNNVTSIQGIPGLASGIITENLWSNYLPKGEIIEKPSAKSSDVLGSLNHEYVLVDITTSFTLLVGIFFPSVTGIMAGSNRSGDLKDAQKSIPIGTILAILTTSFVYLSNVVLFGACIEGVVLRDKFGDAVKGNLVVGTLSWPSPWVIVIGSFFSTCGAGLQSLTGAPRLLQAIAKDNIIPFLRVFGHSKANGEPTWALLLTAAIAELGILIASLDLVAPILSMFFLMCYLFVNLACALQTLLRTPNWRPRFRYYHWALSFMGMSICLALMFISSWYYAIVAMVIAGMIYKYIEYQGAEKEWGDGIRGLSLSAARFALLRLEEGPPHTKNWRPQLLVLLKLDEDLHVKHPRLLTFASQLKAGKGLTIVGSVIVGNFLENYGEALAAEQTIKHLMEAEKVKGFCQLVVAAKLREGISHLIQSCGLGGMKHNTVVMGWPNGWRQSEDARAWKTFIGTVRVTTAAHLALLVAKNISFFPSNVEQFSEGNIDVWWIVHDGGMLMLLPFLLKQHKVWRKCSIRIFTVAQLEDNSIQMKKDLATFLYHLRIEAEVEVVEMHDSDISAYTYERELMMEQRSQMLRHMRLSKTERDREAQLVKDRNSMLRLTSIGSDEDEETETYQEKVHMEWTKDKYMASRGQKAKSMEGFQDLLNMRPDQSNVRRMHTAVKLNEVIVNKSHEAKLVLLNMPGPPRNPEGDENYMEFLEVLTEGLERVLLVRGGGSEVITIYS
- binding result: binds

B3: KCC3 dephosphorylation mimic mutant S45A/T940V/T997V (natural protein, human, UniProt Q9UHW9-2 1-1099, looked up)
chain: MPHFTVTKVEDPEEGAAASISQEPSLADIKARIQDSDEPDLSQNAITGEHSQLLDDGHKKARNAYLNNSNYEEGDEYFDKNLALFEEEMDTRPKVSSLLNRMANYTNLTQGAKEHEEAENITEGKKKPTKTPQMGTFMGVYLPCLQNIFGVILFLRLTWVVGTAGVLQAFAIVLICCCCTMLTAISMSAIATNGVVPAGGSYFMISRALGPEFGGAVGLCFYLGTTFAAAMYILGAIEIFLVYIVPRAAIFHSDDALKESAAMLNNMRVYGTAFLVLMVLVVFIGVRYVNKFASLFLACVIVSILAIYAGAIKSSFAPPHFPVCMLGNRTLSSRHIDVCSKTKEINNMTVPSKLWGFFCNSSQFFNATCDEYFVHNNVTSIQGIPGLASGIITENLWSNYLPKGEIIEKPSAKSSDVLGSLNHEYVLVDITTSFTLLVGIFFPSVTGIMAGSNRSGDLKDAQKSIPIGTILAILTTSFVYLSNVVLFGACIEGVVLRDKFGDAVKGNLVVGTLSWPSPWVIVIGSFFSTCGAGLQSLTGAPRLLQAIAKDNIIPFLRVFGHSKANGEPTWALLLTAAIAELGILIASLDLVAPILSMFFLMCYLFVNLACALQTLLRTPNWRPRFRYYHWALSFMGMSICLALMFISSWYYAIVAMVIAGMIYKYIEYQGAEKEWGDGIRGLSLSAARFALLRLEEGPPHTKNWRPQLLVLLKLDEDLHVKHPRLLTFASQLKAGKGLTIVGSVIVGNFLENYGEALAAEQTIKHLMEAEKVKGFCQLVVAAKLREGISHLIQSCGLGGMKHNTVVMGWPNGWRQSEDARAWKTFIGTVRVTTAAHLALLVAKNISFFPSNVEQFSEGNIDVWWIVHDGGMLMLLPFLLKQHKVWRKCSIRIFTVAQLEDNSIQMKKDLATFLYHLRIEAEVEVVEMHDSDISAYTYERVLMMEQRSQMLRHMRLSKTERDREAQLVKDRNSMLRLTSIGSDEDEETETYQEKVHMVWTKDKYMASRGQKAKSMEGFQDLLNMRPDQSNVRRMHTAVKLNEVIVNKSHEAKLVLLNMPGPPRNPEGDENYMEFLEVLTEGLERVLLVRGGGSEVITIYS
- binding result: binds

B4: human potassium-chloride co-transporter 2 (KCC2), full length (natural protein, UniProt Q9H2X9-2 1-1116, looked up)
chain: MLNNLTDCEDGDGGANPGDGNPKESSPFINSTDTEKGKEYDGKNMALFEEEMDTSPMVSSLLSGLANYTNLPQGSREHEEAENNEGGKKKPVQAPRMGTFMGVYLPCLQNIFGVILFLRLTWVVGIAGIMESFCMVFICCSCTMLTAISMSAIATNGVVPAGGSYYMISRSLGPEFGGAVGLCFYLGTTFAGAMYILGTIEILLAYLFPAMAIFKAEDASGEAAAMLNNMRVYGTCVLTCMATVVFVGVKYVNKFALVFLGCVILSILAIYAGVIKSAFDPPNFPICLLGNRTLSRHGFDVCAKLAWEGNETVTTRLWGLFCSSRFLNATCDEYFTRNNVTEIQGIPGAASGLIKENLWSSYLTKGVIVERSGMTSVGLADGTPIDMDHPYVFSDMTSYFTLLVGIYFPSVTGIMAGSNRSGDLRDAQKSIPTGTILAIATTSAVYISSVVLFGACIEGVVLRDKFGEAVNGNLVVGTLAWPSPWVIVIGSFFSTCGAGLQSLTGAPRLLQAISRDGIVPFLQVFGHGKANGEPTWALLLTACICEIGILIASLDEVAPILSMFFLMCYMFVNLACAVQTLLRTPNWRPRFRYYHWTLSFLGMSLCLALMFICSWYYALVAMLIAGLIYKYIEYRGAEKEWGDGIRGLSLSAARYALLRLEEGPPHTKNWRPQLLVLVRVDQDQNVVHPQLLSLTSQLKAGKGLTIVGSVLEGTFLENHPQAQRAEESIRRLMEAEKVKGFCQVVISSNLRDGVSHLIQSGGLGGLQHNTVLVGWPRNWRQKEDHQTWRNFIELVRETTAGHLALLVTKNVSMFPGNPERFSEGSIDVWWIVHDGGMLMLLPFLLRHHKVWRKCKMRIFTVAQMDDNSIQMKKDLTTFLYHLRITAEVEVVEMHESDISAYTYEKTLVMEQRSQILKQMHLTKNEREREIQSITDESRGSIRRKNPANTRLRLNVPEETAGDSEEKPEEEVQLIHDQSAPSCPSSSPSPGEEPEGEGETDPEKVHLTWTKDKSVAEKNKGPSPVSSEGIKDFFSMKPEWENLNQSNVRRMHTAVRLNEVIVKKSRDAKLVLLNMPGPPRNRNGDENYMEFLEVLTEHLDRVMLVRGGGREVITIYS
- stoichiometry N: 2
